# Experimental data: article PMC10104587 (Proceedings of the National Academy of Sciences of the …, 2023)
# B1: CNGA1 subunit of the bovine rod CNG channel (natural protein, UniProt Q00194 1-690, looked up)
# chain: MKKVIINTWHSFVNIPNVVGPDVEKEITRMENGACSSFSGDDDDSASMFEESETENPHARDSFRSNTHGSGQPSQREQYLPGAIALFNVNNSSNKEQEPKEKKKKKKEKKSKPDDKNENKKDPEKKKKKEKDKDKKKKEEKGKDKKEEEKKEVVVIDPSGNTYYNWLFCITLPVMYNWTMIIARACFDELQSDYLEYWLAFDYLSDVVYLLDMFVRTRTGYLEQGLLVKEERKLIDKYKSTFQFKLDVLSVIPTDLLYIKFGWNYPEIRLNRLLRISRMFEFFQRTETRTNYPNIFRISNLVMYIIIIIHWNACVYFSISKAIGFGNDTWVYPDVNDPDFGRLARKYVYSLYWSTLTLTTIGETPPPVRDSEYFFVVADFLIGVLIFATIVGNIGSMISNMNAARAEFQARIDAIKQYMHFRNVSKDMEKRVIKWFDYLWTNKKTVDEREVLKYLPDKLRAEIAINVHLDTLKKVRIFADCEAGLLVELVLKLQPQVYSPGDYICKKGDIGREMYIIKEGKLAVVADDGITQFVVLSDGSYFGEISILNIKGSKAGNRRTANIKSIGYSDLFCLSKDDLMEALTEYPDAKGMLEEKGKQILMKDGLLDINIANAGSDPKDLEEKVTRMESSVDLLQTRFARILAEYESMQQKLKQRLTKVEKFLKPLIDTEFSAIEGSGTESGPTDSTQD
# B2: CNGB1 subunit of the bovine rod CNG channel (natural protein)
# chain: MLGWVQRVLPQPPGTPQKTKQEEEGTEPEPELEPKPETAPEETELEEVSLPPEEPCVGKEVAAVTLGPQGTQETALTPPTSLQAQVSVAPEAHSSPRGWVLTWLRKGVEKVVPQPAHSSRPSQNIAAGLESPDQQAGAQILGQCGTGGSDEPSEPSRAEDPGPGPWLLRWFEQNLEKMLPQPPKISEGWRDEPTDAALGPEPPGPALEIKPMLQAQESPSLPAPGPPEPEEEPIPEPQPTIQASSLPPPQDSARLMAWILHRLEMALPQPVIRGKGGEQESDAPVTCDVQTISILPGEQEESHLILEEVDPHWEEDEHQEGSTSTSPRTSEAAPADEEKGKVVEQTPRELPRIQEEKEDEEEEKEDGEEEEEEGREKEEEEGEEKEEEEGREKEEEEGEKKEEEGREKEEEEGGEKEDEEGREKEEEEGRGKEEEEGGEKEEEEGRGKEEVEGREEEEDEEEEQDHSVLLDSYLVPQSEEDRSEESETQDQSEVGGAQAQGEVGGAQALSEESETQDQSEVGGAQDQSEVGGAQAQGEVGGAQEQDGVGGAQDQSTSHQELQEEALADSSGVPATEEHPELQVEDADADSRPLIAEENPPSPVQLPLSPAKSDTLAVPGSATGSLRKRLPSQDDEAEELKMLSPAASPVVAWSDPTSPQGTDDQDRATSTASQNSAIINDRLQELVKLFKERTEKVKEKLIDPDVTSDEESPKPSPAKKAPEPAPEVKPAEAGQVEEEHYCEMLCCKFKRRPWKKYQFPQSIDPLTNLMYILWLFFVVLAWNWNCWLIPVRWAFPYQTPDNIHLWLLMDYLCDLIYLLDITVFQMRLQFVRGGDIITDKKEMRNNYVKSQRFKMDMLCLLPLDLLYLKFGVNPLLRLPRCLKYMAFFEFNNRLESILSKAYVYRVIRTTAYLLYSLHLNSCLYYWASAYEGLGSTHWVYDGVGNSYIRCYYWAVKTLITIGGLPDPRTLFEIVFQGLNYFTGVFAFSVMIGQMRDVVGAATAGQTYYRSCMDSTVKYMNFYKIPRSVQNRVKTWYEYTWHSQGMLDESELMVQLPDKMRLDLAIDVNYSIVSKVALFQGCDRQMIFDMLKRLRSVVYLPNDYVCKKGEIGREMYIIQAGQVQVLGGPDGKSVLVTLKAGSVFGEISLLAVGGGNRRTANVVAHGFTNLFILDKKDLNEILVHYPESQKLLRKKARRMLRNNNKPKEKSVLILPPRAGTPKLFNAALAAAGKMGAKGGRGGRLALLRARLKELAALEAAARQQQLLEQAKSSEDAAVGEEGSASPEQPPRPEPPAPEAPAPEPTAPEPLAPEAPAPEAPAPSSPPPASQERPEGDKDAARPEEHPVRIHVTLGPDPSEQILLVEVPEKQEEKEKKEEETEEKEEGEEARKEKEEE
# Columns and labels:
# [1] = target: B2; test: cryo-EM structure
# cryo-EM structure = target: the molecule itself; test: cryo-EM structure
# bovine calmodulin = bovine calmodulin (bovine, UniProt P62157 1-149); test: limited proteolysis-coupled mass spectrometry
binding result [1],binding result (bovine calmodulin),Binder,binding result (cryo-EM structure)
binds,binds,B1,binds
–,binds,B2,–
